From patent US20210269525A1 (BIOCYTOGEN PHARMACEUTICALS BEIJING, published 2021)
Like-named read-outs stand apart in the source and are kept apart here.

Tests used:
[1] = biological target: T1, Histidine-tagged human CD3e protein (human, UniProt P07766 23-126); assay: SPR (Biacore), human CD3e
T1 construct: also called hCD3e-His; not shown: His tag

[2] = biological target: T2, Cynomolgus CD3 epsilon Protein, His Tag (Acrobiosystems, Cat #CDE-05226) (cynomolgus (Macaca fascicularis), UniProt Q95LI5 22-117); assay: SPR (Biacore), cynomolgus CD3e His tag
T2 construct: also called monkey CD3e; not shown: His tag
T2 sequence: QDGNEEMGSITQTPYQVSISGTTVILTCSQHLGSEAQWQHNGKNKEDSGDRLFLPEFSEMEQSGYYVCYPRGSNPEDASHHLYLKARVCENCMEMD
Procedure: The binding affinity of the anti-hCD3e antibodies with monkey CD3e (Cynomolgus CD3 epsilon Protein (SEQ ID NO: 39 AA Gln 22-Asp 117), His Tag, Acrobiosystems, Cat #CDE-05226) were also measured using surface plasmon resonance (SPR) using Biacore (Biacore, INC, Piscataway N.J.) by the methods as described in the examples.

[3] = biological target: T3, monkey CD3e (Macaca fascicularis) on PBMC (Macaca fascicularis, UniProt Q95LI5 22-198); assay: flow cytometry, Macaca fascicularis PBMC, antibody concentration not given, anti-human IgG Fc-Alexa Fluor647 (1:500), anti-hTcRβ-PerCP (1:30)
T3 construct: Target on PBMC from Macaca fascicularis; also called mfCD3e; monkey PBMC
Procedure: A 96-well plate was prepared. 25 ul of cell suspension was added to each well. Anti-hCD3 antibodies were added to the 96-well plate. The cells and the antibodies were incubated for 15 minutes at 4° C. 185 ul PBS was then added to each well. After centrifuge at 2000 rpm for 5 minutes, the medium was discarded. The samples were washed again. 25 ul of PBS was then added to resuspend cells.
Anti-human IgG Fc-Alexa Fluror647 (1:500) and anti-hTcRβ PerCP (1:30) were then added to each well. The cells and the antibodies were incubated for 15 minutes at 4° C. 185 ul PBS was then added to each well. After centrifuge, the residues were discarded. The samples were washed again. 25 ul of PBS was then added to resuspend cells. […] In contrast, anti-hTcRβ PerCP cannot bind to monkey PBMC.

[4] = biological target: T4, human CD3e (T-cell surface glycoprotein CD3 epsilon chain) (human, UniProt P07766 23-207); assay: flow cytometry, human PBMC, antibody 0.01 ug/mL, anti-human IgG Fc-Alexa Fluor647 (1:500), anti-hTcRβ-PerCP (1:30)
T4 construct: Target of the anti-hCD3e antibodies on human PBMC, Jurkat cells and cells expressing human CD3e; on T cells it is part of the CD3/TCR complex; also called hCD3e; CD3e on human PBMC
Procedure: (§1) PBMC cells were collected from a human subject. After being thawed, the cells were cultured for 3-4 hours. The medium was then discarded, and the cells were resuspended in phosphate-buffered saline (PBS). The cell concentration was then adjusted to 2×10⁶/25 μl PBS.
(§2) A 96-well plate was prepared. 25 ul of cell suspension was added to each well. […] The cells and the antibodies were incubated. After centrifuge, the residues were discarded. The samples were washed again. 25 ul of PBS was then added to each well to resuspend cells.
(§3) Anti-human IgG Fc-Alexa Fluror647 (1:500) and anit-hTcRβ PerCP (1:30) were then added to each well. The cells and the antibodies were incubated and then the cells were washed again by PBS. 300 ul of PBS was then added to each well to resuspend the cells. FACS was performed.

[5] = biological target: T4, human CD3e (T-cell surface glycoprotein …); assay: flow cytometry, human PBMC, antibody 0.1 ug/mL, anti-human IgG Fc-Alexa Fluor647 (1:500), anti-hTcRβ-PerCP (1:30)
Procedure: as §1, §2, §3

[6] = biological target: T4, human CD3e (T-cell surface glycoprotein …); assay: cell-based or functional assay
[7] = biological target: T4, human CD3e (T-cell surface glycoprotein …); assay: flow cytometry, human PBMC, antibody 1 ug/mL, anti-human IgG Fc-Alexa Fluor647 (1:500), anti-hTcRβ-PerCP (1:30)
Procedure: as §1, §2, §3

[8] = biological target: T4, human CD3e (T-cell surface glycoprotein …); assay: flow cytometry, human PBMC, antibody 1 µg/mL, anti-human IgG Fc-Alexa Fluor647 (1:500), anti-hTcRβ-PerCP (1:30)
Procedure: as §1, §2, §3

[9] = biological target: T1, Histidine-tagged human CD3e protein; assay: SPR (Biacore), human CD3e; remark: listed apart in the source
[10] = biological target: T4, human CD3e (T-cell surface glycoprotein …); assay: flow cytometry, human PBMC, antibody 0.1 µg/mL, anti-human IgG Fc-Alexa Fluor647 (1:500), anti-hTcRβ-PerCP (1:30)
Procedure: as §1, §2, §3

[11] = biological target: T4, human CD3e (T-cell surface glycoprotein …); assay: flow cytometry, human PBMC, antibody 10 µg/mL, anti-human IgG Fc-Alexa Fluor647 (1:500), anti-hTcRβ-PerCP (1:30)
Procedure: as §1
A 96-well plate was prepared. 25 ul of cell suspension was added to each well. Anti-hCD3e antibodies with different combinations of humanized 1B1 heavy chain variants and humanized 1B1 light chain variants were diluted to 20 ug/ml (2×) in PBS, and were added to the 96-well plate. The cells and the antibodies were incubated. After centrifuge, the residues were discarded. The samples were washed again. 25 ul of PBS was then added to each well to resuspend cells.
as §3

Row | Binder | Kd [1] [nM] | koff [1] [s⁻¹] | kon [1] [M⁻¹ s⁻¹] | upper left quadrant, percent of cells AF647+ / hTcRβ-PerCP- [3] [%] | upper right quadrant, percent of cells AF647+ / hTcRβ-PerCP+ [3] [%] | upper left quadrant, percent of cells AF647+ / hTcRβ-PerCP- [4] [%] | upper right quadrant, percent of cells AF647+ / hTcRβ-PerCP+ [4] [%] | upper left quadrant, percent of cells AF647+ / hTcRβ-PerCP- [5] [%] | upper right quadrant, percent of cells AF647+ / hTcRβ-PerCP+ [5] [%] | EC50, luciferase of Jurkat-Luc-NFAT cells; antibody from supernatant [6] [µg/mL] | upper left quadrant, percent of cells AF647+ / hTcRβ-PerCP- [7] [%] | upper right quadrant, percent of cells AF647+ / hTcRβ-PerCP+ [7] [%] | further results
1 | 10A4-H2K2-IgG1-LALA (antibody, V domains shown, Humanized; human IgG1 with LALA mutations; also called H2K2 (humanized 10A4)) VH: QVQLVQSGAEVKKPGASVKISCKASGYTFTSYYIHWVRQAPGQRLEFIGWIYPGNVNAKYNEKFKGRATITTDKSASTAYMELSSLRSEDTAVYYCAIKGGNYDWGQGTLVTVSS VL: DVVMTQSPLSLPVTLGQPASISCQSSQSLLDSDGKTYLNWLQQRPGQSPRRLIYLVSKLGSGVPDRFSGSGSGTDFTLKISRVEAEDVGVYYCWQGTHFPRTFGGGTKLEIK | 1.96 | 0.000134 | 68400 | 44.2 | 3.1 | 2.42 | 11.6 | 8.05 | 53.3 | 0.247 |  |  | Kd [2]: 8.21 nM; koff [2]: 0.000411 s⁻¹; kon [2]: 50100 M⁻¹ s⁻¹; EC50, luciferase of Jurkat-Luc-NFAT cells; purified antibody [6]: 0.263 µg/mL
2 | 10A4-H3K1-IgG1-LALA (antibody, V domains shown, Humanized; human IgG1 with LALA mutations; also called H3K1 (humanized 10A4)) VH: QVQLVQSGAEVKKPGASVKISCKASGYTFTSYYIHWVRQRPGQRLEFIGWIYPGNVNAKYNEKFKGRATLTTDKSASTAYMELSSLRSEDTAVYFCAIKGGNYDWGQGTLVTVSS VL: DVVMTQSPLSLPVTLGQPASISCQSSQSLLDSDGKTYLNWLQQRPGQSPRRLIYLVSKLGSGVPDRFSGSGSGTDFTLKISRVEAEDVGVYYCWQGTHFPRTFGGGTKVEIK | 2.12 | 0.00014 | 65900 | 52 | 2.39 | 2.62 | 12.9 | 10.7 | 55.6 | 0.198 | 14.5 | 75 | 
3 | 10A4-H3K3-IgG1-LALA (antibody, V domains shown, Humanized; human IgG1 with LALA mutations; also called H3K3 (humanized 10A4)) VH: QVQLVQSGAEVKKPGASVKISCKASGYTFTSYYIHWVRQRPGQRLEFIGWIYPGNVNAKYNEKFKGRATLTTDKSASTAYMELSSLRSEDTAVYFCAIKGGNYDWGQGTLVTVSS VL: not shown | 1.73 | 0.000107 | 62100 | 46 | 2.58 | 2.66 | 14 | 9.79 | 54.8 | 0.475 | 14.3 | 74.7 | 
4 | 10A4-H3K2-IgG1-LALA (antibody, V domains shown, Humanized; human IgG1 with LALA mutations; also called H3K2 (humanized 10A4)) VH: QVQLVQSGAEVKKPGASVKISCKASGYTFTSYYIHWVRQRPGQRLEFIGWIYPGNVNAKYNEKFKGRATLTTDKSASTAYMELSSLRSEDTAVYFCAIKGGNYDWGQGTLVTVSS VL: DVVMTQSPLSLPVTLGQPASISCQSSQSLLDSDGKTYLNWLQQRPGQSPRRLIYLVSKLGSGVPDRFSGSGSGTDFTLKISRVEAEDVGVYYCWQGTHFPRTFGGGTKLEIK | 2.02 | 0.000126 | 62100 | 45.1 | 1.69 | 2.75 | 15.2 | 12.2 | 61.3 | 0.205 | 12.4 | 75.8 | 
5 | 1B1-H3K3-IgG1-LALA (antibody, V domains shown, Humanized; human IgG1 with LALA mutations; also called H3K3 (humanized 1B1)) VH: QVQLVQSGAEVKKPGASVKLSCKASGYTFTSYWMHWVRQRHGQGLEWIGNIYPDSGTTNYGEKFKTRVTLTVDTSTSTAYMELSSLRSEDTAVYYCTRDTSGQYYFDYWGQGTLVTVSS VL: DIVMTQSPDSLAVSAGERVTMNCKSSQSLLNSRTRKNYLAWYQHKPGQSPKLLIYWASTRESGVPDRFSGSGSGTDFTLTISSVQAEDVAVYYCVQSFSLRAFGGGTKLEIK |  |  |  | 86.8 | 9.46 |  |  |  |  |  |  |  | upper left quadrant, percent of cells AF647+ / hTcRβ-PerCP- [8]: 11.6%; upper right quadrant, percent of cells AF647+ / hTcRβ-PerCP+ [8]: 58.1%; Kd [9]: 0.718 nM; koff [9]: 0.000501 s⁻¹; kon [9]: 698000 M⁻¹ s⁻¹; upper left quadrant, percent of cells AF647+ / hTcRβ-PerCP- [10]: 11.8%; upper right quadrant, percent of cells AF647+ / hTcRβ-PerCP+ [10]: 54.5%; upper left quadrant, percent of cells AF647+ / hTcRβ-PerCP- [11]: 9.61%; upper right quadrant, percent of cells AF647+ / hTcRβ-PerCP+ [11]: 63.7%
